Data from the supplement of paper PMC9170038.

System: MS2 coat protein
Assay: apparent KD of MS2 coat protein; higher = weaker reporter binding
Details: Eterna round: R107
Summary of the method: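 Apparent KD is reported per design as the median of normalised binding-curve fits across its clusters. The RNA switches were made by on-chip transcription from Illumina sequencing clusters. SNAP-549-labelled MS2 coat protein was then added in twofold steps (0.7 or 1.5 nM to 3 µM; 0.8–1.5 h to 10–20 min per step) in 100 mM Tris-HCl pH 7.5, 80 mM KCl, 4 mM MgCl2, without or with constant ligand.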

[1] = input ligand: theophylline 20 uM
[2] = input ligand: tryptophan 2.4 mM
[3] = input ligand: theophylline 2 mM

| Sequence | apparent KD of MS2 coat protein (input ligand: arginine 13.2 mM) | apparent KD of MS2 coat protein [1] | apparent KD of MS2 coat protein [2] | apparent KD of MS2 coat protein (input ligand: none) | apparent KD of MS2 coat protein [3] |
| --- | --- | --- | --- | --- | --- |
| UGUAACAUGAGGAUCACCCAUGUGAGUGAUACCAGAUUAGUAGUAGUCCCUUGGCAGCAUAUUGGGCGAGUGUAUAGUCUAUGCG [Same State - Theophylline A (Freestyle 10)] | 94 nM | 250 nM | 205 nM |  |  |
| AGAAUAUAAUAUAUCAAAGGUAUAACCGAAGGAGCGCCGAAUAAGGCAGGUAGGUCGCGGAAACAUGAGGAUCACCCAUGUCCAU [Arginine A Same State; Euphoria Solution 2] | 19 nM | 23.6 nM | 18.7 nM | 19.1 nM | 16.6 nM |
| GCACCAGGUACGGAUACCAGCUGCCAGCGUUACAUGAGGAUCACCCAUGUGAUCUGAUAUAGCCCUUGGCAGCUGUACCUGGUGC [SSThB NP+V+V2 #3 +-Same Structure] | 43.4 nM | 416 nM | 49.6 nM |  |  |
| UAUAUAUAUAGUGAUACCAGCAGAGAAAACGUUUAUCCUAACAUGAGGAUCACCCAUGUAUGCCCUUGGCAGCGUUAUAUAUAUA [8.E] | 21.2 nM | 29.1 nM | 21.9 nM |  |  |
| GAUUUAACAAAAGUUAGAUCAGUGGGUGAACGAGGACCGGUACGGCCGCCACUCGGACAUGAGGAUCACCCAUGUCCAUGUGAAA [AstrosExyTryA#20] | 15.3 nM | 19.4 nM |  |  | 18.6 nM |
| AGUGUUAUAACUGAUACCAGACUUUUGCUUAUACAUGAGGAUCACCCAUGUAAAAUGGUUGUCCCUUGGCAGCAGAAGUUACACA [JR_SSTheophyB_Sub008] | 104 nM | 96.1 nM | 58.6 nM |  |  |
| AGCCACUCGAGUGAUCCUCACGAGUGGCUACGAGGACCGGUACGGCCGCCACUCGAAUUAACAUGAGGAUCACCCAUGUAAUCAU [Brourdmod04] | 97.8 nM | 259 nM |  |  | 317 nM |
| ACGCUGCAUAGGAAAACUAUGUAGCGAAAUCGAGGACCGGUACGGCCGCCACUCGUCCUCAACAUGAGGAUCACCCAUGUAAUAA [Mat - Exclusion - Trytophan A - D8] | 20.8 nM | 23.7 nM |  |  | 22.8 nM |
| CUCCCGUGGUCGGCCGCCACUGGAGGCCUUGCGCGACAUGAGGAUCACCCAUGUGUGCCCGGCGUCAGGACCGGGAUCGCGUGAG [#1 Same State - Tryptophan B Attempt #12 (HarryS)] | 17.2 nM | 18.7 nM | 13.8 nM | 16.1 nM | 19.7 nM |
| UACAUGAGGAUCACCCAUGUAUUGCCGGUACGAGGACCGGUACGGCCGCCACUCGGAGCAUGAGGAUCACCCAUGUGCUGCUAUG [Same State Trypophan A GF 24] | 35.5 nM | 67.1 nM |  |  | 83.7 nM |
| AUUCUUUACUGAAGGAGCGUCAUUCUUACAUGAGGAUCACCCAUGUUUAUUCUUUAUGAUUGACAGGUAGGUCGCAGAUUUUUUA [#11 Same State - Arginine B] | 19.5 nM | 24.4 nM | 17 nM | 17.8 nM | 19 nM |
| UCGCCCGGGUCGGCCGCCACUGCGGUGAUGUGACAUGAGGAUCACCCAUGUUGUCAUGUGGCACAUAGGACCGGGACCCGGGCGA [Exclusion - Tryptophan B Attempt #4 (HarryS)] | 23.2 nM | 45.3 nM |  |  | 40.3 nM |
| UGUCAUGGAAACAUGACAGGUUCUACCGGUCGAGGACCGGUACGGCCGCCACUCGAUUGGUGGCACAUGAGGAUCACCCAUGUUA [SS Tryp A #15] | 24.1 nM | 39.6 nM |  |  | 30.3 nM |
| UAUAUAUAUAUUGAUACCAGCAGAGAAAACAUAUAUCCUAACAUGAGGAUCACCCAUGUAUGCCCUUGGCAGCGAUAUAUAUAUA [8.A] | 24.9 nM | 28.1 nM | 23.5 nM |  |  |
| UGAAAGUAGGGAAGGAGCGCUACAACAUGAGGAUCACCCAUGUUAUGAGGAUCACCCAUGUGGCAGGUAGGUCGCCCAAAACAUG [Same State Arginine B] | 41.3 nM | 95.1 nM | 68 nM | 77 nM | 92.7 nM |
| GUAGCUGAGUGUGAUACCAGAAACGACGUCCUUUAUCAUAACAUGAGGAUCACCCAUGUCUUCCCUUGGCAGCACUUUUCGGUCU [theeternabot_exclusion_MS2_Theo_B_24] | 29.6 nM | 53.6 nM | 34.7 nM |  |  |
| UCCAGACAUGAGGAUCACCCAUGUUGUGAUACCAGAACCGUGGAGUUCCCUUGGCAGCACUAAGAAGUUCCUGGAUCAGCUAGCG [theeternabot_sameState_MS2_Theo_A_9] | 29.9 nM | 36.2 nM | 30 nM |  |  |
| ACGACAUGAGGAUCACCCAUGUACUCUGAAGGAGCGUCGAUUACGACAGGUAGGUCGCAGGCUAAGGAUGGUGAUGCUCAAGACG [Exclusion Arginine A GF8] | 53.5 nM | 90.4 nM | 57.8 nM | 87.7 nM | 114 nM |
